Consider one molecule from US20240124556A1, “KERATIN BD-3, PREPARATION METHOD THEREFOR AND PHARMACEUTICAL COMPOSITION AND USE THEREOF” (INSTITUTE OF MATERIA MEDICA, CHINESE ACADEMY OF MEDICAL …, priority 2019, published 2024).

Holding throughout (type): in vivo, ICR mice
The test system of test [1] is phenol red excretion in mice. In words: Expectorant test, phenol red excretion method in mice. The following applies: for Phenol red excretion: X ± SEM, solvent control 0.506 ± 0.040. As for the experimental part: • Animals: male ICR mice; • Drugs and reagents: Mucosolvan (ambroxol hydrochloride tablets), phenol red, sodium bicarbonate, protein BD-3; • Instruments: centrifuge (Sigma-3K15 type), balance (XS105DU type), Microplate tester (BIO-TEK type). • Experiment Grouping: • Solvent control group; • Mucosolvan 30 mg/kg group; • Protein BD-3, 20 mg/kg group, 50 mg/kg group.
The animals were fasted and water was taken freely 16 hours before the experiment. Orally administered Mucosolvan and different doses of protein BD-3 (administration volume 10 ml/kg) in groups, and the solvent control group was given the same volume of distilled water. One hour later, 2.5% phenol red solution was injected intraperitoneally. Mice were sacrificed by neck dislocation after 30 minutes. Take a trachea from below the thyroid cartilage to the branch of the trachea, and put the trachea into 3 ml 5% NaHCO3 solution and let it stand for 3 hours. Take 1 ml of the supernatant and centrifuge at 3000 rpm for 5 minutes. Measure and record the absorbance at 546 nm. According to the standard curve of phenol red, the excretion of phenol red was calculated.
Record the time point of oral administration, the time point of intraperitoneal injection of 2.5% phenol red solution, and the time point of taking the trachea respectively; The absorbance of each group of samples was measured by the microplate reader at 546 nm, Calculate the excretion of phenol red according to the standard curve of phenol red. Calculate the mean and standard error of the data in each group, and use TTEST to compare the solvent control group with other groups, and P<0.05 is considered as a significant difference.

In test [2] the test system is cough induced by ammonia water in mice. In words: Antitussive test, cough induced by ammonia water in mice. The following applies: for Incubation period (cough) / Number of coughs: X ± SEM; for Incubation period (cough): solvent control 26.9 ± 2.3; for Number of coughs: within 2 minutes, solvent control 67.1 ± 5.7. As for the experimental part:
• Animals: male ICR mice; • Drugs and reagents: dextromethorphan hydrobromide, ammonia water, 0.2% CMC-Na, protein BD-3; • Apparatus: Compressed nebulizer (403T type), balance (XS105DU type). • Experiment grouping: • Solvent control group; • Dextromethorphan 15 mg/kg group; • Protein BD-3, 20 mg/kg group, 50 mg/kg group.
Dextromethorphan and different doses of protein BD-3 (administration volume 10 ml/kg) were given orally in groups, and the solvent control group was given the same volume of distilled water. One hour later, mice were put into a sealed box and atomized 10% ammonia water for 10 seconds, and then observed and recorded the incubation period of cough in mice and the number of coughs in 2 minutes.
Record the time point of oral administration, the time point of atomization experiment, the incubation period of mice cough and the number of coughs within 2 minutes, respectively. The incubation period of cough refers to the number of seconds from the start of the atomization of ammonia to the occurrence of cough. The performance of coughing in mice is based on contraction of their abdominal muscles (breast contraction) and opening their mouths at the same time. Calculate the mean and standard error of each group of data, and use TTEST to compare the model group with other groups, and P<0.05 is considered as a significant difference.

Test [3] deals with PTZ-induced epilepsy in mice. In words: Pentylenetetrazole (PTZ)-induced epilepsy in mice. The following applies: for mortality rate / Grade IV seizure rate / Cases of Grade IV / Cases of deaths: PTZ 65 mg/kg i.p.; for mortality rate: model group 10%; for Grade IV seizure rate: model group 90%; for Cases of Grade IV / Cases of deaths: of 10 mice; for Cases of Grade IV: 15 min observation, model group 9; for Cases of deaths: model group 1; for Grade IV seizure incubation period / Grade III seizure incubation period: mean ± SEM; for Grade IV seizure incubation period: maximum recorded 900 seconds, model group 185 ± 84; for Grade III seizure incubation period: model group 63 ± 6. The procedure:
• Animals: male ICR mice; • Medicines: Pentylenetetrazol (PTZ), Retigabine, Protein BD-3. • Experiment grouping: • Model group; • Retigabine 60 mg/kg group; • Protein BD-3, 50 mg/kg group, 200 mg/kg group;
The drug was administered once in the afternoon the day before modeling, On the day of modeling, PTZ-65 mg/kg (modeling agent) was injected intraperitoneal 1 hour after the test drug was administered intragastrically, and the positive drug can be administered once half an hour before modeling. Continue to observe for 15 minutes after injection of PTZ.
Observation index: (1)Seizure situation: the time of seizures from Grade III to Grade VI; (2)Death situation
Seizure grade: Refer to Racine grading standard: Grade 0: No response; Grade I: manifested as twitching of facial muscles or the corners of the mouth; Grade II: can nod; Grade III: twitching of one limb; Grade IV: rigidity or body twitching; Grade V: generalized epilepsy (generalized tonic seizures).
Count the cases of seizures and deaths in each group of mice in the experiment; Grade III and IV incubation period. The incubation period of mice that have not attacked to Grade IV is recorded as the maximum of 900 seconds. Chi-square test was used for statistics of the number of cases. Calculate the mean and standard error of the incubation period. Use TTEST to compare the model group with other groups, and P<0.05 is considered as a significant difference.

Where [4] appears, read: summary statement, no dose given.

B1: BD-3: recombinant keratin, amino acid sequence SEQ ID NO:1, expressed in E. coli, band around 43 kD; tested material prepared in Example 4 (protein, listed as Bos taurus)
chain: MSYSCCLPNLSFRSSCSSRPCVPSSCCGTTLPGACNIPANVGSCNWFCEGSFNGSEKETMQFLNDRLASYLEKVRQLERDNAELESRILERSQQKILANKAENARLVVQIDNAKLAADDFRTKYQTELGLRQLVESDINGLRRILDELTLCKSDLEAQVESLKEELICLKQNHEQEVNTLRSQLGDRLNVEVDAAPTVDLNRVLNETRAQYEALVETNRRDVEEWYIRQTEELNKQVVSSSEQLQSYQAEIIELRRTVNALEVELQAQHNLRDSLENTLTETEARYSCQLAQVQGLIGNVESQLAEIRSDLERQNQEYQVLLDVRARLECEINTYRGLLDSEDCKLPCNPCATTNASSVGSCVTNPCTPCGPRSRFGPCNTFGC
On to B1, for which, in test [1] (BD-3 20 mg/kg oral), the Phenol red excretion is 0.750 ± 0.085 µg/mL. In addition, the “Excretion of phenol red vs solvent control (in words)” value in test [1] (BD-3 20 mg/kg, P<0.05) is reported as “significantly increased the excretion of phenol red”. Also, the Phenol red excretion in test [1] (BD-3 50 mg/kg oral) was determined as 0.706 ± 0.114 µg/mL. Besides, the “Summary: expectorant effect (in words)” value in test [1] (setting [4]) is “has obvious expectorant effect”. Moreover, in test [2] (BD-3 20 mg/kg oral), the “Incubation period (cough)” value is 31.6 ± 3.3 s and the Number of coughs was 46.7 ± 4.1. For the same molecule, the “Number of coughs vs solvent control (in words)” value in test [2] (BD-3 20 mg/kg, P<0.05) was “significant improvement in the number of coughs”. In test [2] (BD-3 50 mg/kg oral), the “Incubation period (cough)” value worked out at 34.2 ± 2.1 s and the Number of coughs is on record as 53.6 ± 3.7. Also, the “Cough incubation period vs solvent control (in words)” value in test [2] (BD-3 50 mg/kg, P<0.05) was “significant improvement in the incubation period”. Further, the “Summary: antitussive effect (in words)” value in test [2] (setting [4]) was “can significantly extend the incubation period, significantly reduce the number of coughs”. For the same molecule, in test [3] (BD-3 50 mg/kg intragastric), the mortality rate was 10%, the “Grade IV seizure rate” value is reported as 100%, the “Cases of Grade IV” value amounted to 10 and the Cases of deaths was 1. For the same molecule, in test [3] (BD-3 50 mg/kg), the “Grade IV seizure incubation period” value worked out at 162 ± 58 s and the “Grade III seizure incubation period” value is reported as 75 ± 6 s. Moreover, in test [3] (BD-3 200 mg/kg), the “Epilepsy Grade III incubation period vs model group (in words)” value is reported as “has a tendency to extend the incubation period, but there is no statistical difference compared with the model group”; the “Grade IV seizure incubation period” value came to 327 ± 125 s; the “Grade III seizure incubation period” value was found to be 62 ± 5 s. Also, in test [3] (BD-3 200 mg/kg intragastric), the mortality rate amounted to 0%, the “Grade IV seizure rate” value is on record as 70%, the “Cases of Grade IV” value was 7 and the Cases of deaths is given as 0.
